How the values were obtained:
[1] = target: Indicator molecule containing the cleavable sequence GPQGIFGQ with a terminal biotin group connected via a polyethylene glycol spacer/linker (intact)
[2] = target: T1, Cyclised MOL488 peptide (YCQESIRLPGC attached to the scaffold derived from 1,3-dibromomethylbenzene)
T1 chain: YCQESIRLPGC

[3] = target: T2, Cyclised HNE substrate lacking the tyrosine residue (CQESIRLPGC attached to the scaffold)
T2 chain: CQESIRLPGC

Protein | Reader value (lateral flow, CF1522 gold) at 0.5 µg/ml MMP [1] [reader units] | preparative enzymatic cleavage followed by HPLC and mass spectrometry [2] | HPLC analysis of elastase digestion [3] | mass spectrometry of substrate and hydrolysed product [3]
MMP 1 (Enzo) (protein) FVLTEGNPRWEQTHLTYRIENYTPDLPRADVDHAIEKAFQLWSNVTPLTFTKVSEGQADIMISFVRGDHRDNSPFDGPGGNLAHAFQPGPGIGGDAHFDEDERWTNNFREYNLHRVAAHELGHSLGLSHSTDIGALMYPSYTFSGDVQLAQDDIDGIQAIYGRSQNPVQP | 478 | – | – | –
MMP 7 (Enzo) (protein) YSLFPNSPKWTSKVVTYRIVSYTRDLPHITVDRLVSKALNMWGKEIPLHFRKVVWGTADIMIGFARGAHGDSYPFDGPGNTLAHAFAPGTGLGGDAHFDEDERWTDGSSLGINFLYAATHELGHSLGMGHSSDPNAVMYPTYGNGDPQNFKLSQDDIKGIQKLYGKRSNSRKK | 373 | – | – | –
MMP 11 (Enzo) (protein) FVLSGGRWEKTDLTYRILRFPWQLVQEQVRQTMAEALKVWSDVTPLTFTEVHEGRADIMIDFARYWHGDDLPFDGPGGILAHAFFPKTHREGDVHFDYDETWTIGDDQGTDLLQVAAHEFGHVLGLQHTTAAKALMSAFYTFRYPLSLSPDDCRGVQHLYGQPWPTVTSRTPA | 280 | – | – | –
MMP 12 (Enzo) (protein) FREMPGGPVWRKHYITYRINNYTPDMNREDVDYAIRKAFQVWSNVTPLKFSKINTGMADILVVFARGAHGDFHAFDGKGGILAHAFGPGSGIGGDAHFDEDEFWTTHSGGTNLFLTAVHEIGHSLGLGHSSDPKAVMFPTYKYVDINTFRLSADDIRGIQSLYG | 1250 | – | – | –
Human Neutrophil elastase (Leeblo Solutions inc.) (protein) IVGGRRARPHAWPFMVSLQLRGGHFCGATLIAPNFVMSAAHCVANVNVRAVRVVLGAHNLSRREPTRQVFAVQRIFENGYDPVNLLNDIVILQLNGSATINANVQVAQLPAQGRRLGNGVQCLAMGWGLLGRNRGIASVLQELNVTVVTSLCRRSNVCTLVRGRQAGVCFGDSGSPLVCNGLIHGIASFVRGGCASGLYPDAFAPVAQFVNWIDSIIQ | – | A new product peak evolved over time | a single cleavage product results from HNE activity on the peptide | the substrate is cleaved at a single site and that the substrate otherwise remains intact

— patent publication US20160238596
